# Literature values as cited in patent publication US20140295424.
# Tested on: IgE (human myeloma IgE) (Homo sapiens)
# Details: CITED; KD stated for purchased aptamer D17.4, no measurement described; cited from earlier work
sequence,measurement,value
GCCTGTTGTGAGCCTCCTGTCGAAGCACGTTTATCCGTCCCTCCTAGTGGCGTGCTTGAGCGTTTATTCTTGTCTCCC [IgE aptamer D17.4],Kd,0.01 µM
